Laboratory results published in article PMC7948500, “Comparative interactomes of HSF1 in stress and disease reveal a role for CTCF in HSF1-mediated gene regulation” (The Journal of Biological Chemistry, 2020).

Molecular target: T1, His6-tagged CTCF (human, UniProt P49711 1-727)
T1 construct: CTCF, human, codon-optimized for bacterial expression, in pET-15b; printed both as CTCF-His and His-CTCF; pET-15b usually adds an N-terminal His tag; also called His-CTCF; CTCF-His; source: E. coli BL21 (DE3), purified (Ni-NTA agarose)
T1 sequence (looked up): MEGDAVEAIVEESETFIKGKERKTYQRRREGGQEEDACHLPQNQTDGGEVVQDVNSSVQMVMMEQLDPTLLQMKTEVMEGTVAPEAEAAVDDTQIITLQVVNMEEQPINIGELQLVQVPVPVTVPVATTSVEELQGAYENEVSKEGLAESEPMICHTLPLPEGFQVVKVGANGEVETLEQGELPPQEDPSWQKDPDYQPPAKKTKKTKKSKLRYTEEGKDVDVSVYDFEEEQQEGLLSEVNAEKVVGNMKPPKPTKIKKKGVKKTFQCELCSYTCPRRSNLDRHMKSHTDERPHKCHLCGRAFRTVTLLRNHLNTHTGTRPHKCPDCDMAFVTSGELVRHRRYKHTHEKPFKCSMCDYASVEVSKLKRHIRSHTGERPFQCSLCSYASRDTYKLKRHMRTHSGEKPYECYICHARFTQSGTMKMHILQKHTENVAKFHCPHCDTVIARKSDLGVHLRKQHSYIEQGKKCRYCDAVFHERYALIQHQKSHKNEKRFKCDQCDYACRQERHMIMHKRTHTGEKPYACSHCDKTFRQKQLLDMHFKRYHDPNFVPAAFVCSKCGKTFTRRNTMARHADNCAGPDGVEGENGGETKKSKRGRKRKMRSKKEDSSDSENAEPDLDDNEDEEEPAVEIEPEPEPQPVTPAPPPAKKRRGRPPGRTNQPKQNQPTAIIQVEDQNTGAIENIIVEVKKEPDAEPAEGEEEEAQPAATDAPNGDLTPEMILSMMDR
Experiment: pull-down; in vitro STREP pull-down: 5 nM purified His-CTCF alone or with STREP-HSF1 in 1 ml Buffer NP (50 mM NaH2PO4, 300 mM NaCl, pH 8.0), 1 h at 4 °C, MagStrep type 3 XT resin, five washes, eluted with 25 mM desthiobiotin; immunoblot
Conditions: both partners purified

B1: STREP-HSF1 (natural protein, human, UniProt Q00613 1-529, looked up)
chain: MDLPVGPGAAGPSNVPAFLTKLWTLVSDPDTDALICWSPSGNSFHVFDQGQFAKEVLPKYFKHNNMASFVRQLNMYGFRKVVHIEQGGLVKPERDDTEFQHPCFLRGQEQLLENIKRKVTSVSTLKSEDIKIRQDSVTKLLTDVQLMKGKQECMDSKLLAMKHENEALWREVASLRQKHAQQQKVVNKLIQFLISLVQSNRILGVKRKIPLMLNDSGSAHSMPKYSRQFSLEHVHGSGPYSAPSPAYSSSSLYAPDAVASSGPIISDITELAPASPMASPGGSIDERPLSSSPLVRVKEEPPSPPQSPRVEEASPGRPSSVDTLLSPTALIDSILRESEPAPASVTALTDARGHTDTEGRPPSPPPTSTPEKCLSVACLDKNELSDHLDAMDSNLDNLQTMLSSHGFSVDTSALLDLFSPSVTVPDMSLPDLDSSLASIQELLSPQEPPRPPEAENSSPDSGKQLVHYTAQPLFLLDPGSVDTGSNDLPVLFELGEGSYFSEGDGFAEDPTISLLTGSEPPKAKDPTVS
notes: HSF1, human, codon-optimized for bacterial expression; also called STREP-tagged HSF1; source: E. coli BL21 (DE3), purified (StrepTrap column)
binding result: binds
